Measurements published in patent US11274309B2 (dated 2022).

Key:
peptide on HLA-A*02:01 = molecular target: T1, peptide on HLA-A*02:01 (human); assay: activation reporter or marker
T1 peptide: VYALPLKML

peptide on HLA-A*24:02 = molecular target: T2, peptide on HLA-A*24:02 (human); assay: activation reporter or marker
T2 peptide: VYALPLKML

B1: JG9-TCR (TCR, V domains shown)
Valpha: GQQLNQSPQSMFIQEGEDVSMNCTSSSIFNTWLWYKQEPGEGPVLLIALYKAGELTSNGRLTAQFGITRKDSFLNISASIPSDVGIYFCAGPMKTSYDKVIFGPGTSLSVIP
Vbeta: DAGVIQSPRHEVTEMGQEVTLRCKPISGHDYLFWYRQTMMRGLELLIYFNNNVPIDDSGMPEDRFSAKMPNASFSTLKIQPSEPRDSAVYFCASSSANYGYTFGSGTRLTVV
B1: no recognition (peptide on HLA-A*02:01); no recognition (peptide on HLA-A*24:02).
